# Assay results as given in PMC12102759 (2025).
# B1: AXIN1 peptide 235-250 (Axin-1), 16-mer library wild type / PP2A B56 (PPP2R5A B56 domain, residues 1-486) (parent complex)
# chain 1: SGYLPTLNEDEEWKAD
# chain 2: not shown
# Variants of: B1
# Experiment: proteomic peptide phage display deep mutational scan (ProP-PD DMS): M13 P8 16-mer library selected against immobilised GST-tagged bait for four days (rounds), NGS of the eluted pools per day and pseudo-replica; bait immobilised on MaxiSorp plates (10 µg), library pre-cleared on GST, 2 h binding at 4 °C, five washes; one round per day, days 1-4; value from days 2 and 3
row,Variant,screen value
1,chain 1 T6V,"0.00125 average fractional NGS count over selection days 2 and 3 (reads of this peptide / all reads for the bait, averaged over …"
2,chain 1 T6P,"0.000157 average fractional NGS count over selection days 2 and 3 (reads of this peptide / all reads for the bait, averaged over …"
3,chain 1 T6I,"0.000627 average fractional NGS count over selection days 2 and 3 (reads of this peptide / all reads for the bait, averaged over …"
4,chain 1 T6A,"0.000414 average fractional NGS count over selection days 2 and 3 (reads of this peptide / all reads for the bait, averaged over …"
5,chain 1 Y3V,"0.00041 average fractional NGS count over selection days 2 and 3 (reads of this peptide / all reads for the bait, averaged over …"
6,chain 1 Y3L,"0.000544 average fractional NGS count over selection days 2 and 3 (reads of this peptide / all reads for the bait, averaged over …"
7,chain 1 Y3S,"0.000173 average fractional NGS count over selection days 2 and 3 (reads of this peptide / all reads for the bait, averaged over …"
8,chain 1 Y3F,"0.000133 average fractional NGS count over selection days 2 and 3 (reads of this peptide / all reads for the bait, averaged over …"
9,chain 1 Y3A,"0.00043 average fractional NGS count over selection days 2 and 3 (reads of this peptide / all reads for the bait, averaged over …"
10,chain 1 P5Y,"0.000222 average fractional NGS count over selection days 2 and 3 (reads of this peptide / all reads for the bait, averaged over …"
11,chain 1 P5A,"0.00054 average fractional NGS count over selection days 2 and 3 (reads of this peptide / all reads for the bait, averaged over …"
12,chain 1 E12P,"0.000257 average fractional NGS count over selection days 2 and 3 (reads of this peptide / all reads for the bait, averaged over …"
13,chain 1 E12V,"0.000291 average fractional NGS count over selection days 2 and 3 (reads of this peptide / all reads for the bait, averaged over …"
14,chain 1 E12F,"0.000153 average fractional NGS count over selection days 2 and 3 (reads of this peptide / all reads for the bait, averaged over …"
15,chain 1 E12L,"0.00045 average fractional NGS count over selection days 2 and 3 (reads of this peptide / all reads for the bait, averaged over …"
16,chain 1 E12Q,"0.000677 average fractional NGS count over selection days 2 and 3 (reads of this peptide / all reads for the bait, averaged over …"
17,chain 1 E12A,"0.000112 average fractional NGS count over selection days 2 and 3 (reads of this peptide / all reads for the bait, averaged over …"
18,chain 1 K14H,"0.00281 average fractional NGS count over selection days 2 and 3 (reads of this peptide / all reads for the bait, averaged over …"
19,chain 1 K14D,"0.000812 average fractional NGS count over selection days 2 and 3 (reads of this peptide / all reads for the bait, averaged over …"
20,chain 1 K14F,"0.00121 average fractional NGS count over selection days 2 and 3 (reads of this peptide / all reads for the bait, averaged over …"
21,chain 1 K14N,"0.000231 average fractional NGS count over selection days 2 and 3 (reads of this peptide / all reads for the bait, averaged over …"
22,chain 1 K14M,"0.000958 average fractional NGS count over selection days 2 and 3 (reads of this peptide / all reads for the bait, averaged over …"
23,chain 1 K14T,"0.000943 average fractional NGS count over selection days 2 and 3 (reads of this peptide / all reads for the bait, averaged over …"
24,chain 1 K14W,"0.00219 average fractional NGS count over selection days 2 and 3 (reads of this peptide / all reads for the bait, averaged over …"
25,chain 1 K14G,"0.00056 average fractional NGS count over selection days 2 and 3 (reads of this peptide / all reads for the bait, averaged over …"

row,Variant,screen value
1,chain 1 K14L,"0.00437 average fractional NGS count over selection days 2 and 3 (reads of this peptide / all reads for the bait, averaged over …"
2,chain 1 K14P,"0.000647 average fractional NGS count over selection days 2 and 3 (reads of this peptide / all reads for the bait, averaged over …"
3,chain 1 K14Q,"0.00109 average fractional NGS count over selection days 2 and 3 (reads of this peptide / all reads for the bait, averaged over …"
4,chain 1 K14Y,"0.00389 average fractional NGS count over selection days 2 and 3 (reads of this peptide / all reads for the bait, averaged over …"
5,chain 1 K14R,"0.000196 average fractional NGS count over selection days 2 and 3 (reads of this peptide / all reads for the bait, averaged over …"
6,chain 1 N8W,"0.000126 average fractional NGS count over selection days 2 and 3 (reads of this peptide / all reads for the bait, averaged over …"
7,chain 1 N8I,"0.00188 average fractional NGS count over selection days 2 and 3 (reads of this peptide / all reads for the bait, averaged over …"
8,chain 1 N8A,"0.000156 average fractional NGS count over selection days 2 and 3 (reads of this peptide / all reads for the bait, averaged over …"
9,chain 1 N8M,"0.000721 average fractional NGS count over selection days 2 and 3 (reads of this peptide / all reads for the bait, averaged over …"
10,chain 1 N8E,"0.000839 average fractional NGS count over selection days 2 and 3 (reads of this peptide / all reads for the bait, averaged over …"
11,chain 1 N8S,"0.000146 average fractional NGS count over selection days 2 and 3 (reads of this peptide / all reads for the bait, averaged over …"
12,chain 1 N8Y,"0.00143 average fractional NGS count over selection days 2 and 3 (reads of this peptide / all reads for the bait, averaged over …"
13,chain 1 N8R,"0.000829 average fractional NGS count over selection days 2 and 3 (reads of this peptide / all reads for the bait, averaged over …"
14,chain 1 N8K,"0.000298 average fractional NGS count over selection days 2 and 3 (reads of this peptide / all reads for the bait, averaged over …"
15,chain 1 N8Q,"0.00306 average fractional NGS count over selection days 2 and 3 (reads of this peptide / all reads for the bait, averaged over …"
16,chain 1 N8T,"0.000511 average fractional NGS count over selection days 2 and 3 (reads of this peptide / all reads for the bait, averaged over …"
17,chain 1 N8H,"0.000177 average fractional NGS count over selection days 2 and 3 (reads of this peptide / all reads for the bait, averaged over …"
18,chain 1 N8P,"0.000473 average fractional NGS count over selection days 2 and 3 (reads of this peptide / all reads for the bait, averaged over …"
19,chain 1 N8F,"0.000687 average fractional NGS count over selection days 2 and 3 (reads of this peptide / all reads for the bait, averaged over …"
20,chain 1 G2I,"0.000957 average fractional NGS count over selection days 2 and 3 (reads of this peptide / all reads for the bait, averaged over …"
21,chain 1 G2H,"0.000834 average fractional NGS count over selection days 2 and 3 (reads of this peptide / all reads for the bait, averaged over …"
22,chain 1 G2V,"0.000268 average fractional NGS count over selection days 2 and 3 (reads of this peptide / all reads for the bait, averaged over …"
23,chain 1 G2L,"0.000458 average fractional NGS count over selection days 2 and 3 (reads of this peptide / all reads for the bait, averaged over …"
24,chain 1 G2D,"0.000338 average fractional NGS count over selection days 2 and 3 (reads of this peptide / all reads for the bait, averaged over …"
25,chain 1 G2A,"0.00077 average fractional NGS count over selection days 2 and 3 (reads of this peptide / all reads for the bait, averaged over …"

row,Variant,screen value
1,chain 1 G2W,"0.00074 average fractional NGS count over selection days 2 and 3 (reads of this peptide / all reads for the bait, averaged over …"
2,chain 1 G2E,"0.000393 average fractional NGS count over selection days 2 and 3 (reads of this peptide / all reads for the bait, averaged over …"
3,chain 1 G2S,"0.000675 average fractional NGS count over selection days 2 and 3 (reads of this peptide / all reads for the bait, averaged over …"
4,chain 1 G2K,"0.000562 average fractional NGS count over selection days 2 and 3 (reads of this peptide / all reads for the bait, averaged over …"
5,chain 1 G2M,"0.0011 average fractional NGS count over selection days 2 and 3 (reads of this peptide / all reads for the bait, averaged over …"
6,chain 1 L7I,"0.000349 average fractional NGS count over selection days 2 and 3 (reads of this peptide / all reads for the bait, averaged over …"
7,chain 1 E11N,"0.00018 average fractional NGS count over selection days 2 and 3 (reads of this peptide / all reads for the bait, averaged over …"
8,chain 1 E11F,"0.00161 average fractional NGS count over selection days 2 and 3 (reads of this peptide / all reads for the bait, averaged over …"
9,chain 1 E11A,"0.000236 average fractional NGS count over selection days 2 and 3 (reads of this peptide / all reads for the bait, averaged over …"
10,chain 1 E11K,"0.000202 average fractional NGS count over selection days 2 and 3 (reads of this peptide / all reads for the bait, averaged over …"
11,chain 1 E11Y,"0.000271 average fractional NGS count over selection days 2 and 3 (reads of this peptide / all reads for the bait, averaged over …"
12,chain 1 E11S,"0.000584 average fractional NGS count over selection days 2 and 3 (reads of this peptide / all reads for the bait, averaged over …"
13,chain 1 E11Q,"0.00516 average fractional NGS count over selection days 2 and 3 (reads of this peptide / all reads for the bait, averaged over …"
14,chain 1 E11V,"0.000234 average fractional NGS count over selection days 2 and 3 (reads of this peptide / all reads for the bait, averaged over …"
15,chain 1 E11R,"0.000311 average fractional NGS count over selection days 2 and 3 (reads of this peptide / all reads for the bait, averaged over …"
16,chain 1 D16M,"0.00821 average fractional NGS count over selection days 2 and 3 (reads of this peptide / all reads for the bait, averaged over …"
17,chain 1 D16L,"0.000211 average fractional NGS count over selection days 2 and 3 (reads of this peptide / all reads for the bait, averaged over …"
18,chain 1 D16G,"0.000202 average fractional NGS count over selection days 2 and 3 (reads of this peptide / all reads for the bait, averaged over …"
19,chain 1 D16W,"0.000506 average fractional NGS count over selection days 2 and 3 (reads of this peptide / all reads for the bait, averaged over …"
20,chain 1 D16H,"0.0014 average fractional NGS count over selection days 2 and 3 (reads of this peptide / all reads for the bait, averaged over …"
21,chain 1 D16E,"0.000288 average fractional NGS count over selection days 2 and 3 (reads of this peptide / all reads for the bait, averaged over …"
22,chain 1 D16I,"0.000497 average fractional NGS count over selection days 2 and 3 (reads of this peptide / all reads for the bait, averaged over …"
23,chain 1 D16N,"0.000396 average fractional NGS count over selection days 2 and 3 (reads of this peptide / all reads for the bait, averaged over …"
24,chain 1 D16P,"0.000234 average fractional NGS count over selection days 2 and 3 (reads of this peptide / all reads for the bait, averaged over …"
25,chain 1 D16V,"0.00077 average fractional NGS count over selection days 2 and 3 (reads of this peptide / all reads for the bait, averaged over …"
